According to US20120276075:

Experiments:
[1] = biological target: NPY 1-36 (neuropeptide Y)

Chain of BSA, P02769 (P02769 25-607): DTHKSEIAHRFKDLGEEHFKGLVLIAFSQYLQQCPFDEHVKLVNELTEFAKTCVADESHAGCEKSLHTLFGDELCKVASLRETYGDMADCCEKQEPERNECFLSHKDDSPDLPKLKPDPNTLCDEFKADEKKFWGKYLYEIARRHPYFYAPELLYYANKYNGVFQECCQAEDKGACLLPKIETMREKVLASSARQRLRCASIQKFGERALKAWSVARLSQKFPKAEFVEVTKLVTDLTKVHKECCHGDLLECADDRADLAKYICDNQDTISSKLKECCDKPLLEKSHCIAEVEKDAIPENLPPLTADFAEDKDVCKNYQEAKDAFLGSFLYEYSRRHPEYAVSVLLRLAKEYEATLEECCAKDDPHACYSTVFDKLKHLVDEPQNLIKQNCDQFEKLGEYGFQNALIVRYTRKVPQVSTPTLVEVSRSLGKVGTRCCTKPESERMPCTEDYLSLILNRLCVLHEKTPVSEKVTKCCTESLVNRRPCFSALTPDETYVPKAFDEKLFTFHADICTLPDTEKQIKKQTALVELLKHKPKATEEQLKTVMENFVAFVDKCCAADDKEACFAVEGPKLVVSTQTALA

B1: recombinant Aspergillus fumigatus prolyl protease AfuS28, His6-tagged, produced in Pichia pastoris (protein)
chain: LMPRAPLIPAMKAKVALPSGNATFEQYIDHNNPGLGTFPQRYWYNPEFWAGPGSPVLLFTPGESDAADYDGFLTNKTIVGRFAEEIGGAVILLEHRYWGASSPYPELTTETLQYLTLEQSIADLVHFAKTVNLPFDEIHSSNADNAPWVMTGGSYSGALAAWTASIAPGTFWAYHASSAPVQAIYDFWQYFVPVVEGMPKNCSKDLNRVVEYIDHVYESGDIERQQEIKEMFGLGALKHFDDFAAAITNGPWLWQDMNFVSGYSRFYKFCDAVENVTPGAKSVPGPEGVGLEKALQGYASWFNSTYLPGSCAEYKYWTDKDAVDCYDSYETNSPIYTDKAVNNTSNKQWTWFLCNEPLFYWQDGAPKDESTIVSRIVSAEYWQRQCHAYFPEVNGYTFGSANGKTAEDVNKWTKGWDLTNTTRLIWANGQFDPWRDASVSSKTRPGGPLQSTEQAPVHVIPGGFHCSDQWLVYGEANAGVQKVIDEEVAQIKAWVAEYPKYRKPHHHHHH
endoproteolytic activity (release of label from resorufin-labeled casein) (resorufin-labeled casein): Recombinant AfuS28 showed no detectable proteolytic activity using casein resorufin-labeled as a substrate
degradation of the peptide, products detected by mass spectrometry [1]: AfuS28 was also found to degrade NPY1-36 and NPY3-36, cleaving after proline residues
degradation of the peptide, products detected by mass spectrometry (bradykinin (…)): Digestion of bradykinin (RPPGFSPFR, SEQ ID NO:28) resulted in RPP, FR, GFSPFR (SEQ ID NO:35) and PGFSPFR (SEQ ID NO:36) fragments
degradation of the peptide, products detected by mass spectrometry (NPY 3-36): AfuS28 was also found to degrade NPY1-36 and NPY3-36, cleaving after proline residues
digestion of the peptide by AfuS28 and SedB added together, acidic pH, mass spectrometry (NPY 3-36): AfuS28 and SedB added together degraded NPY3-36 in Y, di- and tri-peptides
full length NPY3-36 remaining after 15 min with 1.8 mU of enzyme at 37 C (degradation kinetics, mass spectrometry) (NPY 3-36): Less than 10% of full length NPY3-36 was still present after 15 min incubation
proteolysis of a full length protein substrate (BSA, P02769): AfuS28 does not attack full length protein substrates such as resorufin-labeled casein and BSA
degradation of the peptide by AfuS28 + SedB together, 2 hours at 37 C, pH 4 and pH 8, mass spectrometry (33-mer of gliadin): The enzyme composition AfuS28+SedB provides complete degradation of gliadin into several di-, tri-, tetra- and pentapeptides

B2: recombinant Aspergillus fumigatus sedolisin SedB (tripeptidyl-peptidase), produced in Pichia pastoris (protein)
chain: TSTCDQVITPQCLKDLYNIGDYKADPNGGSKVAFASFLEEYARYDDLAKFEEKLAPYAIGQNFSVIQYNGGLNDQNSASDSGEANLDLQYIVGVSSPIPVTEFSTGGRGLLIPDLSQPDPNDNSNEPYLEFLQNVLKMDQDKLPQVISTSYGEDEQTIPEKYARSVCNLYAQLGSRGVSVIFSSGDSGVGAACLTNDGTNRTHFPPQFPAACPWVTSVGGTTKTQPEEAVYFSSGGFSDLWERPSWQDSAVKRYLKKLGPRYKGLYNPKGRAFPDVAAQAENYAVFDKGVLHQFDGTSCSAPAFSAIVALLNDARLRAHKPVMGFLNPWLYSKASKGFNDIVKGGSKGCDGRNRFGGTPNGSPVVPYASWNATDGWDPATGLGTPDFGKLLSLAMRR
digestion of the peptide at acidic pH, mass spectrometry [1]: this enzyme removed tripeptides (YPS, KPD and NPG) from the N-terminus of NPY1-36 until position 10
digestion of the peptide at acidic pH, mass spectrometry (NPY 3-36): NPY3-36 was not digested by recombinant SedB
digestion of the peptide by AfuS28 and SedB added together, acidic pH, mass spectrometry (NPY 3-36): AfuS28 and SedB added together degraded NPY3-36 in Y, di- and tri-peptides
degradation of the peptide by AfuS28 + SedB together, 2 hours at 37 C, pH 4 and pH 8, mass spectrometry (33-mer of gliadin): The enzyme composition AfuS28+SedB provides complete degradation of gliadin into several di-, tri-, tetra- and pentapeptides
